Here are results for two substances from publication doi:10.1101/2023.10.19.563203.

Assay [1] concerns the target fibrin (human) (UniProt P02679). The assay is described as follows: radioligand binding.
The target is the same in assay [2]. In words: depletion on clotting, ELISA of plasma against the serum made from it. (An ELISA detects its analyte on a solid surface through an enzyme-linked reagent.)
The target is the same in assay [3]. In words: co-sedimentation.
The target is the same in assay [4]. The assay is described as follows: co-sedimentation. This is another data set of the same source.

Like-named read-outs stand apart in the source and are kept apart here.

By Kd is commonly meant the concentration at which binding is half-saturated. For “factor H (from UniProt P08603 19-1231) (natural protein)”, in assay [1], the Kd turned out to be 0.055 nM, the binding at 75 mM NaCl as percent of that at 20 mM NaCl is < 50%, the percent of input bound (500,000 cpm/well) was 1.7% and the percent of input bound at saturation (input 3.5 μg) was 0.1%. Moreover, in assay [2], the percent of the plasma level lost in the serum (healthy volunteer) came out at 38%. The percent bound at 96 min, non-denaturing wash in assay [3] stood at 25%. Besides, in assay [4], the fold increase of percent bound, enhanced against normal clots, at 140 mM NaCl stood at 6 fold; the percent bound after 16 h, after 5 M urea wash (Table 1) turned out to be 30%; the percent bound at 30 min, after 5 M urea wash came to 13%; the percent bound at 30 min, non-denaturing wash was found to be 22%. Moreover, in assay [4], the percent bound at 96 min, after 5 M urea wash came to 18%; the percent bound at 96 min, non-denaturing wash was 26%; the percent bound at 960 min, after 5 M urea wash was 32.5%; the percent bound to enhanced plasma clots, 40 min, HEPES-½-saline wash is 21.5%. In addition, in assay [4], the percent bound to fibrin-only-clots, HEPES-½-saline wash is 19% and the percent bound to plasma clots at 70 mM salt was 21.5%.

plasminogen (natural protein): the percent bound after 16 h, after 5 M urea wash (Table 1) in assay [4] stood at 31%.
